This experiment deals with T1, recombinant mouse sIL-6Ra (20-357) (mouse, UniProt P22272 20-357).
T1 construct: range 20-357; The CD33 part of the plasmid name is not explained; also called recombinant sIL-6Ra; recombinant soluble IL-6Ra
T1 sequence: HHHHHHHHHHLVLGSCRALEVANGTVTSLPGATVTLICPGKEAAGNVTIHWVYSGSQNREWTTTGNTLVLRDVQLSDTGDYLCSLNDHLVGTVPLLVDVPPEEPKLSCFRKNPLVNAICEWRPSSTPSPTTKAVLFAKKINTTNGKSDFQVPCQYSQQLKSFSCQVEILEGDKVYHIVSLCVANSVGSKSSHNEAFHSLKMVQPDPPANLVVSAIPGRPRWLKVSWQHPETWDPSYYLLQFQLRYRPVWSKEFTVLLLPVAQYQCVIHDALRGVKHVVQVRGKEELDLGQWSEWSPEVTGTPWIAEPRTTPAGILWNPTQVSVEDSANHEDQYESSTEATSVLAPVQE
In words: SPR (Biacore), sIL-6Ra (20-357) amine-coupled to CM5 chip, antibody as analyte, 1:1 Langmuir fit. Here is the method:
The antigen-antibody affinity of four antibodies (rAb #22, rAb #52, rAb #62, a rat mAb RB01) were determined by an analysis service employing a surface plasmon resonance technology (Beijing Xtalbio Ltd. Co). It started with a directly immobilization of recombinant mouse sIL-6Ra (20-357) on a CM5 S sensor chip using Biacore® S200 machine. Approximately 27.8 resonance units (RU) of the sIL-6Ra (20-357) were immobilized at 25° C. with an amine coupling kit following the standard amine coupling procedure. The remaining active sites on the sensor chip were blocked with 1 M ethanolamine-HCl solution, pH 8.5 at a flow rate of 10 μL/min for 7 min, to finally reach 27.8 RU. The flow cells were washed with the injection of HBS-EP running buffer at 30 μL/min. For each antibody, a 2-fold serial dilution (0, 0.39 nM-200 nM) was injected at 15° C. to a channel with a flow rate of 30 μL/min for 120s and dissociation was followed for 720s. The curves were locally fitted with Biacore®8K analysis software (BIAevaluation) using a 1:1 Langmuir binding model.
(In general: Surface plasmon resonance follows binding to a sensor surface in real time, without labels.)

B1: rAb #52 (antibody, V domains shown)
VH: QSLEESGGDLVKPGASLTLACTASGFSFSSGYYMCWVRQAPGKGLEWIGCIYTGSDTTYYASWAKGRFTISETSSTAATLQMTSLTAADTATYFCARDLGSRGNLWGPGTLVTVSS
VL: DIVMTQTPSSVSAAVGDTVTINCQASENIYSFLTWYQQKPGQRPKLLIYRASTLASGVPSRFKGSGSGTDFTLTISDLECADAATYYCQRNAYSSWAFGGGTEVVVK
notes: also called Antibody 52; recombinant rabbit monoclonal antibody from fusion clone #52
For orientation: Kd means a measure of binding affinity in units of concentration. B1: the equilibrium dissociation constant (Kd) was found to be 9.43 pM.

The values are drawn from patent US20260201046A1 (BIO RAD LABORATORIES, published 2026).
